Test results reported in patent publication US20220251193A1 (RAMOT AT TEL AVIV UNIVERSITY, published 2022).

Biological target: T1, Sema3A(65) (human (by the filing's definition of …, UniProt Q14563 21-555, limits assumed))
T1 construct: also called recombinant pure Sema3a protein; 65 kDa furin cleavage
T1 sequence: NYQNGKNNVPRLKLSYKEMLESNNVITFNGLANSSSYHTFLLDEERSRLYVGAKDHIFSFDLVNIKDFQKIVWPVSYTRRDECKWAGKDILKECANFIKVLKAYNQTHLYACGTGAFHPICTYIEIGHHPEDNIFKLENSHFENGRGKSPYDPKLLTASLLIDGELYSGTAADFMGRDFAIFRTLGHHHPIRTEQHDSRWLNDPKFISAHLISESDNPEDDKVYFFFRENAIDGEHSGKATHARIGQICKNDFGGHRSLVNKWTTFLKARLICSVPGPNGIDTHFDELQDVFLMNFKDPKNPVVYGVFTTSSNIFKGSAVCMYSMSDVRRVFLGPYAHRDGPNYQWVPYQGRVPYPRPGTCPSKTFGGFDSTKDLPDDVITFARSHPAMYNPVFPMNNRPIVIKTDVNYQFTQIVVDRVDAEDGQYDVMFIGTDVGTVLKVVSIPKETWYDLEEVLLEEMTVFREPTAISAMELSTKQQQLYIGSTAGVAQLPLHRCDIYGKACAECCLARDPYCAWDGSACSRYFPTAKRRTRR
Experiment: ELISA on coated antigen (5 µg/ml), Fab in 2 fold dilutions from 1 µM, detection with HRP goat anti human H+L
Experimental: FIGS. 1A-B are graphs illustrating purification and ELISA binding evaluation of anti Sema3a isolated Fabs for estimated Kd values. The analyzed antibody was added in 2 fold dilution series starting at 1 μM to the antigen (Sema3A) coated wells (5 μg/ml). Bound antibodies were detected with horseradish peroxidase (HRP)-conjugated goat anti human H+L secondary antibodies. Fab 3H4 (FIG. 1A), L4B8 and L4E6 (FIG. 1B) are presented.

B1: Fab L4B8 (Fab, V domains shown)
VH: EVQLLESGGGLVQPGGSLRLPCAASGFTVGLYNINWVRQAPGKGLAWVSTISGSGLNTYYSDPVKGRFTISRDNSKNTLYLQMNSLRAEDTAVYYCARDEDTYAFNWGQGTLVTVSS
VL: DIVLTQSPGTLSLSPGERATLSCRASQSVSSSYLAWYQQKPGQAPRLLIYGASTRAPGIPDRFSGSGSGTDFTLTISRLEPEDFAVYYCHQRGSGDTFGPGTKVEIK
notes: C-terminal His tag on the Fd fragment
Question: With B1 as the binder, how does the “EC50 (read off the curve)” value read?
Answer: ~100 nM

B2: Fab L4E6 (Fab, V domains shown)
VH: EVQLLESGGGLVQPGGSLRLSCAASGFTFSNFVMNWVRQAPGKGLEWVSRINTDGTSTNYADSVTGRFTISRDNSKNTLYLQMNSLRAEDTAVYYCARDYPLRRLMYYYYGMDVWGQGTLVTVSS
VL: DIVLTQSPGTLSLSPGERATLSCRASQTISSNLAWYQQKPGQAPRLLIYGASSRATGIPDRFSGSGSGTDFTLTISRLEPEDFAVYYCQQYSWSPRVYSFGQGTKLEIK
notes: as for B1
Question: Which “EC50 (read off the curve)” value does the source give for B2 here?
Answer: ~200 nM
